test: soluble on expression in E. coli; label from the status in PepcDB or PDB records

Sequence	soluble on expression in E. coli
KRVFGFVSAKGGDGGSCIAANFAFALSQEPDIHVLAVDISLPFGDLDMYLSGNTHSQDLADISNASDRLDKSLLDTMVQHISPSLDLIPSPATFEKIVNIEPERVSDLIHIAASFYDYIIVDFGASIDHVGVWVLEHLDELCIVTTPSLQSLRRAGQLLKLCKEFEKPISRIEIILNRADTNSRITSDEIEKVIGRPISKRIPQDEDAMQESLLSGQSVLKVAPKSQLSKTIVDWALHLNGVSRPNKRSIWERLKIK	soluble
MNTRTWFVLLCLALPLVSLQAQPHPQTEQTSPALSEHTEMDHTEMNHTEMDHTEMDHTEMDHTEMDHTQMDHTQMDHTQMDHAIHGATTQFAGDGSLPPPSAAALAAAFPPLRHRAAHAPPLVSLVRIDRLETWNADPGRGHAWATQAWIGSDIQRLWLRSQGECYGGRCQSVAVEMLYGHDISPWWDALIGARRDVQPDGRTWAALGVQGVAPYKFESAAFLYLSGAAMRLMVETKYDLLLSQRLILQPSLQATAGLTRDRDLGAGPQTLQVGIRMRYQITRRVAPYVGWEREYGYGESGRQARARGTSDHEKRWVAGIRCWFLEHHHHHH	soluble
MGSDKIHHHHHHMSTKHAKAAEKFLENPVMAAWHNETLWMVRAKRDKMSKEVPEWEELRDKACALKLYSNSHLEELLLEFEKNATANGAIVHWAKDAEEYRAIVYEILSSHGVKHFVKSKSMLAEECELNPFLIEKGIDVVESDLGERILQLMNLAPSHIVLPAIHIKREQVGELFEKEMGTEKGNFDPTYLTHAARKNLRNIFLNAEAAMTGANFAVASTGDIVVCTNEGNADMGTSCPTLNIAAFGMEKIVPDMEALGVFTRLLARSATGQPITTYTSQYRNPREGGEYHIIIVDNGRSALLAHPDHIKTLNCIRCGACMNTCPVYRRSGGYSYTYFIPGPIGINLGMAHDPEKYYDNLSACSLCMSCSDVCPAKVDLAEQIYKWRQDLDKIGKANTGKKIMSGGMKVLMDHPTLFNAALWAAPVVNHLPRFMKYNDLDAWGKGRELPKFAGESFNEMWKKNKVQGKEENK	not soluble
MDRFEIKEEFLLNGQSFKILSGAIHYFRVDPSDWHHSLYNLKALGFNTVETYVPWNLHEPQKGTFHFEGILDLERFLKLAQELGLYAIVRPSPYICAEWEFGGFPAWLLNEPGRMRSNNPTYLKHVAEYYDVLMEKIVPHQLANGGNILMIQIENEYGSFGEEKAYLRAIRDLMIARGVTAPFFTSDGPWRATLRAGSMIEDDILVTGNFGSKAKENFGMMQAFFEEHGKKWPLMCMEFWDGWFNRWKEPIIKRDPQELAESVREALALGSINLYMFHGGTNFGFMNGCSARGTIDLPQITSYDYDAPLDEQGNPTEKYFALQKMLHEEYPALPQAEPLVKESFAQTAIPLTNKVSLFATLETISQPVVSVYPQTMEQLGQNTGYLLYRTSIEKDAAEEKLRVIDGRDRLQLFVNQVHQATQYQTEIGEDIYVTLPQENNQIDILMENMGRVNYGHKLFADTQKKGIRTGVMADLHFMTQWQQYCLPMTSCEQVDYSREWQPDQPSFYQYHVELAEVKDTFIDVSKFGKGIVFVNQTNLGRFWNVGPTLSLYIPKGLLKEGQNEIVIFETEGTYQPEIQLVKEPLYKEMKEGLQ	not soluble
MVRYFGFLANRVCGEKLPQVYRALGMDKPEPVAKVCYAQMVKQFLSRDPFECVLCGGRMVYRRAIAGLNVEGLKKNARDISLLRYMPA	not soluble
MGSDKIHHHHHHMNNLPLLDNNWNTDLYEDKHAFVWQYGENLLKVLNPKLGESILDLGCGTGQLTEKIAQAGAEVTGIDRASSMIETARQNYPHLRFDVADARDFQVLKPLDAVFSNAVLHWIKEADAAIASIHQALKPGGRFVAEFGGKGNIQAIVTALYSALEAIAISPQALNPWYFPSIGEYATLLEQQGFDVTYATLFARPTPLTEGEAGMANWLEMFADVFLAGLSADQKIQIIRTVEEHLLPTLYQQGNWTADYRRIRIVAIKL	not soluble
MTGVGTPSPSLEWRRRVMSWTDERVSTLKKLWLDGLSASQIAKQLGGVTRNAVIGKVHRLGLSGRAAPSQPARPAFKAPRPARPAAQAMPSAPRRVTPVEAPTSVPVAAAPAPLPAFRHEEPGSATVLTLGAHMCKWPIGDPSSEGFTFCGRRSSEGPYCVEHARVAYQPQQTKKKSGGAELARSLRRYILEHHHHHH	not soluble
MNPLLQDYARILLEWNQTHNLSGAKNLSELEPQITDALKPLEFIKDFKSCLDIGSGAGLPAIPLALEKPEVKFILLEPRIKRAAFLNYLKSVLPLKNIEIIKKRLEDYQNLLQVDLITSRAVASSSFLIEKSQRFLKDKGYFLFYKGEQLKDEIACKDTECFMHQKRVYFYKSKESLCLEHHHHHH	soluble
MDYDVLILGGGIIGCSIAYELSKYSLNVSLIEKEYEIGDDTSIVNSDLVYDGIESKYNFNYGLETEGNQEIEKICSVLSVPFKKVNAIVCSRDKENEDTINKIYSRGIKRGIKDASLANIESAIAKSIILKDINNKGIELKDIGIVCADDLALAYGEVAFDNGVNFRLNEKVIEIKKISKGFNVTTSKNKFTCKIVINTIPDASSPILVDGKEDKGSKKNISNLIYFVLDRKVKASLKHAIAVLSNKGDSTYIFRDFEDNIIVKIVTKDDCLYDEALDKLKAVIGDIEEEDIIYFYKSRFINDKIVITNKLDSDGYIKVQCKSYAISTVTPSISRNVGEAIVKNLNCKLKKEFYGRRREIYRFRDMSNKQRQKLIATNPDYGKIICRCNQVTEGEIIDSIRRPLGARTLNGIKRRTGVFNGECLGTCCIDKIVKILAKETNKSLTEVIKKTENSSIVKGRIKEFDEMLEHHHHHH	not soluble
GPGSMCSPIADNADMIVPSADTCCPNTVFERVLRCACIVMRVGDDPGYIWTPQRLGAGSFGTVTLAYRHEGDAVWRKTAVKRISLRKETRLSAVLEKVRCTGREVALCRRAGVSPHVVPMYKPWFDCREGVIALPMDAGDFSLEQYAVHCGFRFPPLALLSMCAQCARAVAHLHRRGVVHRDVKPDNFVVNVFDTVGGAGAGGDGDCGEARPPFVRILDFGLACGVEEVEQELKRCVGTPHYMAPETFSHLCDCDVPAACDVWSLGVTLFRLATGVFPVFDQDVTASWPPASASSARLGVPRLRSPWPRVVERCPAPW	not soluble
MFGNHGQLFRLSVFRSADTAQQFLRQCYQQLQRDDAVQRSYANCYPFLYYLEHGQNFYAAAQQAPLSIKPVLLFYGMVQLLKACLLTVDPDYPESTSVLAHGVSARKRKKQGYEFLDDEVKIQKNGLFAHFSEKMFHVKQEAGEKFRMGTLLQRIGELHETFFLLSGRKKPLSLPVVHTASPPMLAIPKVILDHYHMSLSRFVQYLCEEGQGKRLSFAKEEGEFLYFHIESPLSPAGEGPFLFHLDGTLRIPVKKEKTFSLPEIHAHYLLLYNLSMISRYETEWWSELLHSYPSKAYTFILEFLSVSAEKVPLLLHEYLMRKFLG	not soluble
MSLRRVFMKQIEGGICAVRGVSAYGIKPGKMGIAVIRAEGPAAGVFTRNKVVAAPVTLSRERIETEHRLSAVIANSGNANAFTGDDGFLDAMEMASMVAENLGLDPDNVAVASTGVIGRRLDVSFIKEHLPEVLEGLGSSPECSRAAAKAIMTTDRALKESAVELDCGVRIGAIAKGSGMIEPNMGTMLCFAYTDAKVPADVLDAALKIAVDKTFNMVVVDGDTSTNDMVLFTSTCKSGVKPCLDCLDDFEEGLVCVFTDLAKKMAKDGEGATKLIEARVTGAKKYEDARLVAKTIVRSPLVKSAIFGKDPNWGRVVAAAGYSGAELEQERLTLSFSGGGEEVELVKAGEISTASDLSLLKKIMANDEIIINLDLAMGEESATAWGCDLTYDYVRINAEYTTLEHHHHHH	not soluble
MSLPFITKISTQKKNTERFNIFLDDKYAFSVDADVLVKFELKKGKELDDLDIIEIQYGDEVKKGFNRALDFLSYRMRSTKEVEDHLKKKETSPPVIAEVIHRLNDYKYLNDQEFAAAYVSTHKKTNGKGPDVLFRELRAKGIDDDTIKEALSSFSFEDQTREAVKHVEKLLKKDKKLSTKELKQRAQLQLQRKGFSFDVISAAMDQIEYENDEDTEKEALRLHAEKAFRKYRYDGSYESAMKVKQFLFRKGFSLDLIEQLLQEEEYEGHHHHHH	soluble
GGGPFIVVAHSQGSMIAYHVLRQLKKADCDVRLFITIGSPLGIQEAQDVLGKIGSGKPLAVPECVDRWLNVAERLDPVALDSDLGNDYQPNSHGVKIENHAGLMINPEWASNPHSGTGYLSLDIVRQAVRETAGPTFSNPVGRNILMKDLVDNIEDGHREQRHPTLIQLVSDDDDATSLDEVRDRLSNLIKNVL	not soluble

From the DeepSol protein solubility set
